Among the targets are Kif3A^ΔC89-Kif3B (human, UniProt Q9Y496 1-610; O15066 1-747, SNAPf tag labeled with Alexa 647); Kif3A-Kif3B^ΔC114 (human, UniProt Q9Y496 1-699; O15066 1-633, SNAPf tag labeled with Alexa 647); Kif3A-Kif3B^ΔC90 (human, UniProt Q9Y496 1-699; O15066 1-657, SNAPf tag labeled with Alexa 647).
What all share (assay): single-molecule TIRF co-localization

Chain of Kif3A-Kif3B^ΔC90 (Q9Y496 whole entry, stated change not applied, chain 1 of 2): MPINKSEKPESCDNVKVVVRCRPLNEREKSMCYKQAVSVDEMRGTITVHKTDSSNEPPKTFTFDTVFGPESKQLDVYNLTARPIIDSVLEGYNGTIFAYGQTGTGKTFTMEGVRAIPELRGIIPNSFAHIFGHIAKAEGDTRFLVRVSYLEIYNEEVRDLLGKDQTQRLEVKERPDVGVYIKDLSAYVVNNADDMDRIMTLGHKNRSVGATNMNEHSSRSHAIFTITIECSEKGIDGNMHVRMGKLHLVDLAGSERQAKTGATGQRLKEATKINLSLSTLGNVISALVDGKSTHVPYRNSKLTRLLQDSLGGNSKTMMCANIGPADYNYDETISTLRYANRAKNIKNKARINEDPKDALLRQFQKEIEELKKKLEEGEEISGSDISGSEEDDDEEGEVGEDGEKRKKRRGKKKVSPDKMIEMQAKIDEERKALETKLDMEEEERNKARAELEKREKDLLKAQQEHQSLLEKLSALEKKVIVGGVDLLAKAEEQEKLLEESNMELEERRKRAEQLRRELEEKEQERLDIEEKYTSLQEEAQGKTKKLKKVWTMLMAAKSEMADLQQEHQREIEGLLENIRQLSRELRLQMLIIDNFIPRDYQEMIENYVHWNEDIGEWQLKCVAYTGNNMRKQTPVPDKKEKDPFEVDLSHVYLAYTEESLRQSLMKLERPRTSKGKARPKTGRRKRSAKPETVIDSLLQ
Chain of Kif3A-Kif3B^ΔC90 (O15066 1-657, stated change not applied, chain 2 of 2): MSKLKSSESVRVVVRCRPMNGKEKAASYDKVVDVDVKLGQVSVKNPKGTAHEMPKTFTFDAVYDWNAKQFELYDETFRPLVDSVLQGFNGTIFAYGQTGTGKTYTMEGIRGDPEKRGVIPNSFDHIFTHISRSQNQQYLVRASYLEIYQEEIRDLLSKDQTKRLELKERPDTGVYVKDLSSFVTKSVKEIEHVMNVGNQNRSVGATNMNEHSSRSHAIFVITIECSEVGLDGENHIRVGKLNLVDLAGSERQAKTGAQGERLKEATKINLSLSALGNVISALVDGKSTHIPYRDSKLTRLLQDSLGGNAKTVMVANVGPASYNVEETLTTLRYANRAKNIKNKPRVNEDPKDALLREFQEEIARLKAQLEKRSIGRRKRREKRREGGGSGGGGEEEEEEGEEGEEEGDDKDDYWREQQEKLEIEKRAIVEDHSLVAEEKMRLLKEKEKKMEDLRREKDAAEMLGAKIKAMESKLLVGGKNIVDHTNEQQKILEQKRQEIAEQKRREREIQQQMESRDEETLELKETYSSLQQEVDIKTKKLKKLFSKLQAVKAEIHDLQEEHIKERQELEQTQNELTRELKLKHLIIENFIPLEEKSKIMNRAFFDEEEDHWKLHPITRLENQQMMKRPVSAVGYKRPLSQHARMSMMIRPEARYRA
Chain of Kif3A-Kif3B^ΔC114 (Q9Y496 whole entry, stated change not applied, chain 1 of 2): as the sequence (Q9Y496 whole entry, stated change not applied, chain 1 of 2) above
Chain of Kif3A-Kif3B^ΔC114 (O15066 1-633, stated change not applied, chain 2 of 2): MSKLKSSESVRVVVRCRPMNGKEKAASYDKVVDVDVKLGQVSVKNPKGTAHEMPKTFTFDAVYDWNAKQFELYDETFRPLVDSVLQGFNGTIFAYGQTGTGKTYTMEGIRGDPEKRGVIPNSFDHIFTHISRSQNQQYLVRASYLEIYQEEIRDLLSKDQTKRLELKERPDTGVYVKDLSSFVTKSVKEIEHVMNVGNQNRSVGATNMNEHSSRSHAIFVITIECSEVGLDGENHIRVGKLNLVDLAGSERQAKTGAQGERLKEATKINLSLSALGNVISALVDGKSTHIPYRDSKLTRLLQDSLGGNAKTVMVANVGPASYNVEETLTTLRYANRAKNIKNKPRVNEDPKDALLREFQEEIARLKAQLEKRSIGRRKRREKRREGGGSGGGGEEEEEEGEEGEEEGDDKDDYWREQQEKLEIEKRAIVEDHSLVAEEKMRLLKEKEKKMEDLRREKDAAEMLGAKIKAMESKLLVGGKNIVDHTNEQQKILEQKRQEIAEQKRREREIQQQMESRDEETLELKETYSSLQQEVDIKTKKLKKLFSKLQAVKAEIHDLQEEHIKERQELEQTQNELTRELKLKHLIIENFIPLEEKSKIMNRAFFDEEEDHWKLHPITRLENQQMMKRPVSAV
Chain of Kif3A^ΔC89-Kif3B (Q9Y496 1-610, stated change not applied, chain 1 of 2): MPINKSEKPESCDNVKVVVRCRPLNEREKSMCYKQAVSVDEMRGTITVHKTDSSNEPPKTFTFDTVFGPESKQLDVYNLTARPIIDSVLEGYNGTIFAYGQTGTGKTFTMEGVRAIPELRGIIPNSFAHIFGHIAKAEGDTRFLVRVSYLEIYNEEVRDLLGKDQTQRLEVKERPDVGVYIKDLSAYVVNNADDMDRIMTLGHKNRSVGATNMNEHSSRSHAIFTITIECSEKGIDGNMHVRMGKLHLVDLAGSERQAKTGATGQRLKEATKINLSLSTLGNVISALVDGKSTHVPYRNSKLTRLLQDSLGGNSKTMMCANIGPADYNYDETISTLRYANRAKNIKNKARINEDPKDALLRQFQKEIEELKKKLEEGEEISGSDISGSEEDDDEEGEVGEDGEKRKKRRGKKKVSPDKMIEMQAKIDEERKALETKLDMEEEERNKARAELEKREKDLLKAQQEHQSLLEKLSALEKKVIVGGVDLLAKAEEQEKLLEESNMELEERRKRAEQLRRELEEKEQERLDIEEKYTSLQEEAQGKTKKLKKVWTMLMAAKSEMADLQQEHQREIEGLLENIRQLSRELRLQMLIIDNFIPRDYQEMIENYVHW
Chain of Kif3A^ΔC89-Kif3B (O15066 whole entry, stated change not applied, chain 2 of 2): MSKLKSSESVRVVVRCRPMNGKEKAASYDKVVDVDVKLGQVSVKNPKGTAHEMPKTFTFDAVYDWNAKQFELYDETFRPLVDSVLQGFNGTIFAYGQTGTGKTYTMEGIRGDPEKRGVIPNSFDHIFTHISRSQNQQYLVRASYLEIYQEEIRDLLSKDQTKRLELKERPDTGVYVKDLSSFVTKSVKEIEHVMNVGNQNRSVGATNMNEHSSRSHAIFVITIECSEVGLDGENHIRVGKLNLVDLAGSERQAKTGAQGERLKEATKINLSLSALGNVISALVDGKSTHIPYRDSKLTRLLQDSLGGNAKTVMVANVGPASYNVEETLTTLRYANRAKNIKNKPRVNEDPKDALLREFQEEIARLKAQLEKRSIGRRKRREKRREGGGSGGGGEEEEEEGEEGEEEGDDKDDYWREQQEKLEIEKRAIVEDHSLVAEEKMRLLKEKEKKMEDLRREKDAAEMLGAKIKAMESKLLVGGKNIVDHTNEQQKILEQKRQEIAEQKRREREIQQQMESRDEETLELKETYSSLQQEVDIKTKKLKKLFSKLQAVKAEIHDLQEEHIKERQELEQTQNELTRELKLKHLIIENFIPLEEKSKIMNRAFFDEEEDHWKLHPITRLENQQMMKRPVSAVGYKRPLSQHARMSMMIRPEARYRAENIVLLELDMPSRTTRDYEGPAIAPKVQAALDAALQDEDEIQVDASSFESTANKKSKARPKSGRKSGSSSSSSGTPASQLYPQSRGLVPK

B1: Kap3 (natural protein, human, UniProt Q92845 1-792, looked up)
chain: MQGEDARYLKRKVKGGNIDVHPSEKALIVHYEVEATILGEMGDPMLGERKECQKIIRLKSLNANTDITSLARKVVEECKLIHPSKLNEVEQLLYYLQNRRDSLSGKEKKEKSSKPKDPPPFEGMEIDEVANINDMDEYIELLYEDIPDKVRGSALILQLARNPDNLEELLLNETALGALARVLREDWKQSVELATNIIYIFFCFSSFSQFHGLITHYKIGALCMNIIDHELKRHELWQEELSKKKKAVDEDPENQTLRKDYEKTFKKYQGLVVKQEQLLRVALYLLLNLAEDTRTELKMRNKNIVHMLVKALDRDNFELLILVVSFLKKLSIFMENKNDMVEMDIVEKLVKMIPCEHEDLLNITLRLLLNLSFDTGLRNKMVQVGLLPKLTALLGNDNYKQIAMCVLYHISMDDRFKSMFAYTDCIPQLMKMLFECSDERIDLELISFCINLAANKRNVQLICEGNGLKMLMKRALKFKDPLLMKMIRNISQHDGPTKNLFIDYVGDLAAQISNDEEEEFVIECLGTLANLTIPDLDWELVLKEYKLVPYLKDKLKPGAAEDDLVLEVVIMIGTVSMDDSCAALLAKSGIIPALIELLNAQQEDDEFVCQIIYVFYQMVFHQATRDVIIKETQAPAYLIDLMHDKNNEIRKVCDNTLDIIAEYDEEWAKKIQSEKFRWHNSQWLEMVESRQMDESEQYLYGDDRIEPYIHEGDILERPDLFYNSDGLIASEGAISPDFFNDYHLQNGDVVGQHSFPGSLGMDGFGQPVGILGRPATAYGFRPDEPYYYGYGS
modifications: SNAPf tag labeled with TMR in the co-localization assay
Take B1: the “percent of Kif3AB molecules with Kap3 co-localized” value with Kif3A^ΔC89-Kif3B worked out at 26%; with Kif3A-Kif3B^ΔC114, 50%; with Kif3A-Kif3B^ΔC90 it was 62%.

The record behind these values is article doi:10.1101/2024.10.14.618219 (bioRxiv, 2024).
